Data: article PMC4117754

Tests used:
[1] = tested on: PTB1 C4 C250S;C251S;E518C;del1-55, P26599-1; assay: filter binding; conditions: Filter binding: 5 mM Hepes pH 7.4, 100 mM KCl, 3 mM MgCl2, 5% glycerol, 75 ug/ml yeast tRNA, 75 ug/ml BSA, 0.5 mM DTT, room temp; probing: 20 mM HEPES-KOH pH 7.
PTB-GFP = PTB-GFP (UniProt P26599); assay: single-molecule TIRF; conditions: Filter binding: 5 mM Hepes pH 7.4, 100 mM KCl, 3 mM MgCl2, 5% glycerol, 75 ug/ml yeast tRNA, 75 ug/ml BSA, 0.5 mM DTT, room temp, probing: 20 mM HEPES-KOH pH 7.
[2] = tested on: PTB1 C4pack C250S;C251S;E518C;E502K;V505E;I509K;del1-55, P26599-1; assay: filter binding; conditions: Filter binding: 5 mM Hepes pH 7.4, 100 mM KCl, 3 mM MgCl2, 5% glycerol, 75 ug/ml yeast tRNA, 75 ug/ml BSA, 0.5 mM DTT, room temp; probing: 20 mM HEPES-KOH pH 7.
[3] = tested on: PTB1 C3mC4m C250S;C251S;E518C;del1-55, P26599-1; assay: filter binding; conditions: Filter binding: 5 mM Hepes pH 7.4, 100 mM KCl, 3 mM MgCl2, 5% glycerol, 75 ug/ml yeast tRNA, 75 ug/ml BSA, 0.5 mM DTT, room temp; probing: 20 mM HEPES-KOH pH 7.
[4] = tested on: PTB1 C3C4 C250S;C251S;E518C;del1-55, P26599-1; assay: filter binding; conditions: Filter binding: 5 mM Hepes pH 7.4, 100 mM KCl, 3 mM MgCl2, 5% glycerol, 75 ug/ml yeast tRNA, 75 ug/ml BSA, 0.5 mM DTT, room temp; probing: 20 mM HEPES-KOH pH 7.
[5] = tested on: PTB1 C3C4m C250S;C251S;E518C;del1-55, P26599-1; assay: filter binding; conditions: Filter binding: 5 mM Hepes pH 7.4, 100 mM KCl, 3 mM MgCl2, 5% glycerol, 75 ug/ml yeast tRNA, 75 ug/ml BSA, 0.5 mM DTT, room temp; probing: 20 mM HEPES-KOH pH 7.
[6] = tested on: PTB1 C1C2m C250S;C251S;Q124C;D284C;I214S;F216A;K218S;del1-55, P26599-1; assay: filter binding; conditions: Filter binding: 5 mM Hepes pH 7.4, 100 mM KCl, 3 mM MgCl2, 5% glycerol, 75 ug/ml yeast tRNA, 75 ug/ml BSA, 0.5 mM DTT, room temp; probing: 20 mM HEPES-KOH pH 7.
[7] = tested on: PTB1 C4m C250S;C251S;E518C;del1-55, P26599-1; assay: filter binding; conditions: Filter binding: 5 mM Hepes pH 7.4, 100 mM KCl, 3 mM MgCl2, 5% glycerol, 75 ug/ml yeast tRNA, 75 ug/ml BSA, 0.5 mM DTT, room temp; probing: 20 mM HEPES-KOH pH 7.
[8] = tested on: PTB1 C3mC4 C250S;C251S;E518C;del1-55, P26599-1; assay: filter binding; conditions: Filter binding: 5 mM Hepes pH 7.4, 100 mM KCl, 3 mM MgCl2, 5% glycerol, 75 ug/ml yeast tRNA, 75 ug/ml BSA, 0.5 mM DTT, room temp; probing: 20 mM HEPES-KOH pH 7.
[9] = tested on: PTB1 C1C2 C250S;C251S;Q124C;D284C;del1-55, P26599-1; assay: filter binding; conditions: Filter binding: 5 mM Hepes pH 7.4, 100 mM KCl, 3 mM MgCl2, 5% glycerol, 75 ug/ml yeast tRNA, 75 ug/ml BSA, 0.5 mM DTT, room temp; probing: 20 mM HEPES-KOH pH 7.
[10] = tested on: PTB1 LmC4 C250S;C251S;E518C;K439A;K440A;del1-55, P26599-1; assay: filter binding; conditions: Filter binding: 5 mM Hepes pH 7.4, 100 mM KCl, 3 mM MgCl2, 5% glycerol, 75 ug/ml yeast tRNA, 75 ug/ml BSA, 0.5 mM DTT, room temp; probing: 20 mM HEPES-KOH pH 7.
[11] = tested on: PTB1 C1mC2m C250S;C251S;Q124C;D284C;I214S;F216A;K218S;del1-55, P26599-1; assay: filter binding; conditions: Filter binding: 5 mM Hepes pH 7.4, 100 mM KCl, 3 mM MgCl2, 5% glycerol, 75 ug/ml yeast tRNA, 75 ug/ml BSA, 0.5 mM DTT, room temp; probing: 20 mM HEPES-KOH pH 7.
[12] = tested on: PTB1 C1mC2 C250S;C251S;Q124C;D284C;del1-55, P26599-1; assay: filter binding; conditions: Filter binding: 5 mM Hepes pH 7.4, 100 mM KCl, 3 mM MgCl2, 5% glycerol, 75 ug/ml yeast tRNA, 75 ug/ml BSA, 0.5 mM DTT, room temp; probing: 20 mM HEPES-KOH pH 7.
Chain of PTB1 C1mC2 C250S;C251S;Q124C;D284C;del1-55, P26599-1 (P26599 other isoform, or with tags, fused parts or gaps C250S C251S Q124C D284C): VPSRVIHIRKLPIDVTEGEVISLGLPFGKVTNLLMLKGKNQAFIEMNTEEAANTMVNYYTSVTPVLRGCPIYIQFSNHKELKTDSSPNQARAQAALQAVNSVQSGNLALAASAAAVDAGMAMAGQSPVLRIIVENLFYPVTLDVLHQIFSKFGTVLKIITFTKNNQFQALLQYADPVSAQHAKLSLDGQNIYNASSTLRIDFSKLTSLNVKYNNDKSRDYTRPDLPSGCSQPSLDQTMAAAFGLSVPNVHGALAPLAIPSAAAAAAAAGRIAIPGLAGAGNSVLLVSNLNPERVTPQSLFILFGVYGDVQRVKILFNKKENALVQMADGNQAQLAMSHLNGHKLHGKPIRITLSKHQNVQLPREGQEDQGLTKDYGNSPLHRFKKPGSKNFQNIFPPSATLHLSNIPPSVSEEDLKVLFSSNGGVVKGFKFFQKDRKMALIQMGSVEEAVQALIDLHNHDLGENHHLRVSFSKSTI

Chain of PTB-GFP (P26599 whole entry): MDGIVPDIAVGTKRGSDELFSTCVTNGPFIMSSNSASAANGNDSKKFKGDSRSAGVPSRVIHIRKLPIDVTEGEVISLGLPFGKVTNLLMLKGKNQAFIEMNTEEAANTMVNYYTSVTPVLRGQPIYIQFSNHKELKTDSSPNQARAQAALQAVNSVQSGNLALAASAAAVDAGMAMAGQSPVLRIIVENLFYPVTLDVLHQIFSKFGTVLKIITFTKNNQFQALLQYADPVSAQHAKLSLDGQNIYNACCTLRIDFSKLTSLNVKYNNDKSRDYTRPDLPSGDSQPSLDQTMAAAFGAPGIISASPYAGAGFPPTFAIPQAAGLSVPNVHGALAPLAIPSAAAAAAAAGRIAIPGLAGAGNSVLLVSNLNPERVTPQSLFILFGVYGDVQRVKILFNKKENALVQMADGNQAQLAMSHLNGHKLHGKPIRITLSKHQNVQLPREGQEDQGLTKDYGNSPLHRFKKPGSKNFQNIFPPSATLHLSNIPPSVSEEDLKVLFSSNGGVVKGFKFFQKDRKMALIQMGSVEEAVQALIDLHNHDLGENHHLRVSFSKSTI
Chain of PTB1 C4 C250S;C251S;E518C;del1-55, P26599-1 (P26599 other isoform, or with tags, fused parts or gaps C250S C251S E518C): as the sequence (P26599 other isoform, or with tags, fused parts or gaps C250S C251S Q124C D284C) above, with C69Q, C229D, E463C counted along it
Chain of PTB1 C1C2 C250S;C251S;Q124C;D284C;del1-55, P26599-1 (P26599 other isoform, or with tags, fused parts or gaps C250S C251S Q124C D284C): as the sequence (P26599 other isoform, or with tags, fused parts or gaps C250S C251S Q124C D284C) above
Chain of PTB1 C1C2m C250S;C251S;Q124C;D284C;I214S;F216A;K218S;del1-55, P26599-1 (P26599 other isoform, or with tags, fused parts or gaps C250S C251S Q124C D284C I214S F216A K218S): as the sequence (P26599 other isoform, or with tags, fused parts or gaps C250S C251S Q124C D284C) above, with I159S, F161A, K163S counted along it
Chain of PTB1 C1mC2m C250S;C251S;Q124C;D284C;I214S;F216A;K218S;del1-55, P26599-1 (P26599 other isoform, or with tags, fused parts or gaps C250S C251S Q124C D284C I214S F216A K218S): as the sequence (P26599 other isoform, or with tags, fused parts or gaps C250S C251S Q124C D284C) above, with I159S, F161A, K163S counted along it
Chain of PTB1 C4pack C250S;C251S;E518C;E502K;V505E;I509K;del1-55, P26599-1 (P26599 other isoform, or with tags, fused parts or gaps C250S C251S E518C E502K V505E I509K): as the sequence (P26599 other isoform, or with tags, fused parts or gaps C250S C251S Q124C D284C) above, with C69Q, C229D, E447K, V450E, I454K, E463C counted along it
Chain of PTB1 LmC4 C250S;C251S;E518C;K439A;K440A;del1-55, P26599-1 (P26599 other isoform, or with tags, fused parts or gaps C250S C251S E518C K439A K440A): as the sequence (P26599 other isoform, or with tags, fused parts or gaps C250S C251S Q124C D284C) above, with C69Q, C229D, K384A, K385A, E463C counted along it
Chain of PTB1 C3C4m C250S;C251S;E518C;del1-55, P26599-1 (P26599 other isoform, or with tags, fused parts or gaps C250S C251S E518C): as the sequence (P26599 other isoform, or with tags, fused parts or gaps C250S C251S Q124C D284C) above, with C69Q, C229D, E463C counted along it
Chain of PTB1 C3C4 C250S;C251S;E518C;del1-55, P26599-1 (P26599 other isoform, or with tags, fused parts or gaps C250S C251S E518C): as the sequence (P26599 other isoform, or with tags, fused parts or gaps C250S C251S Q124C D284C) above, with C69Q, C229D, E463C counted along it
Chain of PTB1 C3mC4 C250S;C251S;E518C;del1-55, P26599-1 (P26599 other isoform, or with tags, fused parts or gaps C250S C251S E518C): as the sequence (P26599 other isoform, or with tags, fused parts or gaps C250S C251S Q124C D284C) above, with C69Q, C229D, E463C counted along it
Chain of PTB1 C4m C250S;C251S;E518C;del1-55, P26599-1 (P26599 other isoform, or with tags, fused parts or gaps C250S C251S E518C): as the sequence (P26599 other isoform, or with tags, fused parts or gaps C250S C251S Q124C D284C) above, with C69Q, C229D, E463C counted along it
Chain of PTB1 C3mC4m C250S;C251S;E518C;del1-55, P26599-1 (P26599 other isoform, or with tags, fused parts or gaps C250S C251S E518C): as the sequence (P26599 other isoform, or with tags, fused parts or gaps C250S C251S Q124C D284C) above, with C69Q, C229D, E463C counted along it

| Substance | Kd [1] | binding signal (% RNA with bound PTB-GFP) (PTB-GFP) | Kd [2] | Kd [3] | Kd [4] | Kd [5] | Kd [6] | Kd [7] | Kd [8] | Kd [9] | Kd [10] | Kd [11] | Kd [12] | Kd (PTB-GFP; average Kd, 3-4 PTB sites, 2.6% of RNA with bound PTB-GFP, nuclear extract) |
| --- | --- | --- | --- | --- | --- | --- | --- | --- | --- | --- | --- | --- | --- | --- |
| AUGUGAACAUGGAAUCAUCAAGGAAUGCACACUCACCAGCAACACCAAGUGCAAAGAGGAAGGUAAUUAUUUUUUUACGGUUAUAUUCUCCUUUCCCCCAACCCCAUGGAAAGAUGUGAAGAAAAACCAAUCACUCUUGAUUACUAGAAAGUCCUUUAUUUAAUCUUAAAGAUUGCUUAUUUUCAUAUAAAAUGUCCAAUGUUCCAACCUACAGGAUCCAGAUCUAACUUGGGGUGGCAAUGCACACUCACCAGGCCAAUUCCACUAAUUGUUUGGGGUAAGUUCUUGCUUUGUUCAAACUGCAGAUUGAAAUAACUUGGGAAGUAGGUGUGAAAGUAUGUUCUCACAUGCAUUCUACAAGGCUGAGACCUGAGUUGAUAAAAUUUCUUUGUUCUUUCAGUGAAGAGAAAGGAAGUACAGAAAACAUGCAGAAAGCACAGAAAGGAA [FAS m0 mutant RNA] | 7.5 nM | 2.9 |  |  |  |  |  |  |  |  |  |  |  |  |
| AUGUGAACAUGGAAUCAUCAAGGAAUGCACACUCACCAGCAACACCAAGUGCAAAGAGGAAGGUAAUUAUUUUUUUACGGUUAUAUUCUCCUUUCCCCCAACCCCAUGGAAAGAUGUGAAGAAAAACCAAUCACUCUUGAUUACUAGAAAGUCCUUUAUUUAAUCUUAAAGAUUGCUUAUUUUCAUAUAAAAUGUCCAAUGUUCCAACCUACAGGAUCCAGAUCUAACUUGGGGUGGCUUUGUCUUCUUCUUUUGCCAAUUCCACUAAUUGUUUGGGGUAAGUUCUUGCUUUGUUCAAACUGCAGAUUGAAAUAACUUGGGAAGUAGGUGUGAAAGUAUGUUCUCACAUGCAUUCUACAAGGCUGAGACCUGAGUUGAUAAAAUUUCUUUGUUCUUUCAGUGAAGAGAAAGGAAGUACAGAAAACAUGCAGAAAGCACAGAAAGGAA [FAS WT RNA (exon 5-6-7)] | 10.3 nM |  | 6.3 nM | 24.6 nM | 14.7 nM | 22.9 nM | 15.3 nM | 29.9 nM | 16.5 nM | 10.1 nM | 14.2 nM | 12.3 nM | 11.6 nM | 20 nM |
| Tpm1 RNA |  | 7.9 |  |  |  |  |  |  |  |  |  |  |  |  |
